Consider 3 molecules from patent publication US20240150474A1 (Regeneron, published 2024).

T1: full length human ACVR1 (amino acids 1-509, R206H, of accession #Q04771) on HEK293/BRE-luc/hACVR1-R206H-clone … (human, UniProt Q04771 21-509)
T1 construct: Expressed as amino acids 1-509; also called HEK293/hACVR1-R206H
T1 sequence: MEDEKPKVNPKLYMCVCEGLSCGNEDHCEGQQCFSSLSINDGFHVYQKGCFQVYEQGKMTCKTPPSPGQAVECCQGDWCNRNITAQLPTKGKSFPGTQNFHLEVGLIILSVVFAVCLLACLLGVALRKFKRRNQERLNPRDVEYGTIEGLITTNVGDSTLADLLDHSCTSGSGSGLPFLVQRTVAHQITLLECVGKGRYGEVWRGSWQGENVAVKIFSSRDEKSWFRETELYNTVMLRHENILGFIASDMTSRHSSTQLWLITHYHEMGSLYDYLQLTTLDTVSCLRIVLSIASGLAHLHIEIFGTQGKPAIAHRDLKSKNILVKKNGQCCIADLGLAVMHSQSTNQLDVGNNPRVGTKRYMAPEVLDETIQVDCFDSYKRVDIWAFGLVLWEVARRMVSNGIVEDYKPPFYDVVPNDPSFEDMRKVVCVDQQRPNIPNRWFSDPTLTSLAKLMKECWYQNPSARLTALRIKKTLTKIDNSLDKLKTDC

T2: mouse ACVR1 extracellular domain expressed with a C-terminal myc-myc-hexahistidine tag (mouse)
T2 construct: also called mACVR1-mmh; mACVR1.mmh
T2 chain: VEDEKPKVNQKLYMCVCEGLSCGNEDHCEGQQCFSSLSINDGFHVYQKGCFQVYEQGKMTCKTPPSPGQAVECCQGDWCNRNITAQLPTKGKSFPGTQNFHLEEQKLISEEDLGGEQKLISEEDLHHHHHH

B1: REGN 5167 (antibody, human IgG4 S228P, kappa, V domains shown)
VH: QLQLQESGPGLVKPSETLSLTCTVSGGSITSSSYYWAWIRQPPGKGLEWIGKIYYSGSTHYNPSLKSRVTISVDTSKNQFSLKLSSVTAADTAVYYCARVGGHGYGDSAGLAFDIWGQGTMVTVSS
VL: EIVLTQSPGTLSLSPGERATLSCRASQSVSSAFLAWYQQKPGQAPRLLIYGASYRHTGIPDRFSGSGSGTDFTLTISRLEPEDFAVYYCQHYGVGPRTFGGGTKVEIKR
notes: also called REGN 5167-L1
B2: REGN 5168 (antibody, human IgG4 S228P, kappa, V domains shown)
VH: QVQLVQSGAEVKEPGASVKVSCKASGYTFAEYYMHWVRQAPGQGLEWMGAINPSGSHTSYAQKFQGRVTMTRDTSTSTVYMELSSLRSEDTAVYYCARSISGKRGGDYYGMDVWGQGTTVTVSS
VL: DIQMTQSPSTLSASVGDRVTITCRASQSISSWLAWYQQKPGKAPKLLIYKASSLESGVPSRFSGSGSGTEFTLTISSLQPDDFATYYCQQYSIFPFTFGGGTKVEIKR
notes: also called REGN 5168-L1
B3: REGN 5166 (antibody, human IgG4 S228P, kappa, V domains shown)
VH: QVQLVESGGGVVQPGRSLRLSCAASGFTFSAYWMHWVRQAPGKGLEWVAVISYDGSNKYYADSVKGRFTISRDHSKNTLYLQMNSLRAEDTAVYYCAKGDAYDSWRILLGGDYYGMDVWGQGTTVTVSS
VL: EIVLTQSPGTLSLSPGERATLSCRASQSVSSSYLAWYQQKPGQAPRPLIYGASSRATGIPDRFSGSGSGTDFTLTISRLEPEDFAVYYCQQGGDAPPYTFGGGTKVEIKR
notes: also called REGN 5166-L1

For one test, the target named is T1, full length human ACVR1 (amino acids …). The experiment in a line: flow cytometry, 70 nM antibody on HEK293/hACVR1-R206H cells, 4C. Here is the method:
To assess binding of the anti-ACVR1 antibodies of the invention to ACVR1 receptors expressed on the cell surface, 70 nM of the antibodies were incubated with 5×10⁵ cells/well at 4° C. for 30 minutes in PBS (without calcium and magnesium) containing 2% FBS (flow buffer). […] Cells were fixed using BD CytoFix™ (Becton Dickinson, # 554655) and analyzed on IQue® Flow Cytometer (Intellicyt®). Unstained and secondary antibody alone controls were also tested on cells. The results were analyzed using ForeCyt® (IntelliCyt®) software to determine the geometric means of fluorescence for viable cells and the binding ratio was calculated by normalizing the geometric mean value of the test condition by the geometric mean value of the corresponding unstained cells.
Regarding B1, the “MFI-Normalized to Unstained Control” value was 1870 fold.
B2: the “MFI-Normalized to Unstained Control” value came out at 2250 fold.
The same measure, in the same setting: with B3 the figure was 2000 fold.

The target in another test is T2, mouse ACVR1 extracellular domain …. The experiment in a line: SPR Biacore T200, mAb captured by anti-human Fc, mACVR1-mmh injected, 37C. Here is the method:
Equilibrium dissociation constants (KD) for ACVR1 binding to purified anti-ACVR1 monoclonal antibodies were determined using a real-time surface plasmon resonance (SPR) based Biacore T200 biosensor. All binding studies were performed in 10 mM HEPES, 150 mM NaCl, 3 mM EDTA, and 0.05% v/v surfactant Tween-20, pH 7.4 (HBS-EP) running buffer at […]. The Biacore CM5 sensor surface was first derivatized by amine coupling with a monoclonal mouse anti-human Fc antibody (REGN2567) to capture anti-ACVR1 monoclonal antibodies. Different concentrations of ACVR1 reagents, human ACVR1 extracellular domain expressed with a C-terminal myc-myc-hexahistidine tag (hACVR1-mmh; REGN3111, SEQ ID NO: 63), mouse ACVR1 extracellular domain expressed with a C-terminal myc-myc-hexahistidine tag (mACVR1-mmh; REGN3407, SEQ ID NO: 65), human ACVR1 extracellular domain expressed with a C-terminal mouse IgG2a Fc tag (hACVR1-mFc; REGN3112, SEQ ID NO: 64); and mouse ACVR1 extracellular domain expressed with a C-terminal mouse IgG2a Fc tag (mACVR1-mFc, R&D system), at concentrations ranging from 0.41 nM to 100 nM in a series of 3-fold dilutions prepared in HBS-EP running buffer were injected at a flow rate of 50 μL/min for 1.5 minutes. The dissociation of different ACVR1 reagents bound to anti-ACVR1 monoclonal antibodies was monitored for 20 minutes in HBS-EP running buffer. At the end of each cycle, the anti-ACVR1 monoclonal antibodies capture surface was regenerated using a 12 sec injection of 20 mM H3PO4. The association rate (ka) and dissociation rate (kd) were determined by fitting the real-time binding sensorgrams to a 1:1 binding model with mass transport limitation using Scrubber 2.0c curve-fitting software. Binding dissociation equilibrium constant (KD) and dissociative half-life (t½) were calculated from the kinetic rates as: […]
Binding kinetics parameters for different ACVR1 reagents to anti-ACVR1 monoclonal antibodies of the invention at 37° C. are shown in Table 5 through Table 8.
Background: In SPR one partner is held on a chip, and binding of the other changes the refractive index at the surface.
With B1, the “100 nM Ag Bound (RU)” value was found to be 43 RU; the Kd (usually a measure of binding affinity in units of concentration) came to 0.226 nM; the dissociation rate constant (koff) (as a rule, a measure of how fast the partners let go of each other) turned out to be 0.000161 s⁻¹; the kon (as a rule, a measure of how fast the partners come together) came out at 713000 M⁻¹ s⁻¹. In addition, the t½ (as a rule, the time needed for the level to fall by half in the phase considered) was found to be 1.2 h.
The matching figures for B2: 42 RU, 1.24 nM, 0.00167 s⁻¹, 1.34e+06 M⁻¹ s⁻¹ and 0.117 h.
Taken in the same sequence, the figures for B3 were 43 RU, 0.268 nM, 0.000181 s⁻¹, 674000 M⁻¹ s⁻¹ and 1.07 h.
